Assay [1] has as its target T1, human insulin receptor (IR) on human IM-9 cells (human, UniProt P06213 28-1382).
T1 construct: whole, on cells; also called human IR
The assay can be described thus: competition with biotinylated RHI on IM-9 cells, flow cytometry, 4 C; material purified by Protein G. On the procedure:
(§1) 40 µL of an IM-9 cell suspension (8×10⁶ cells/mL) was then added to each well by multichannel pipette, mixed again gently and incubated on ice for 30 min to allow competitive binding on the IR on IM-9 cells. Cells were then washed twice with 275µL of ice-cold FACS wash buffer (HBSS/2mM EDTA/0.1% Na-azide + 0.5% horse serum) by centrifuging the V-bottom plate at 3000 rpm for 3 min and aspirating the supernatant. Cells were then resuspended in 40µL of FACS staining medium containing 1:100 diluted Streptavidin-PE (Life Technologies) for 20 min on ice. Cells were then washed once with 275 µL of ice-cold FACS buffer and finally fixed with 3% paraformaldehyde for 10 min at room temp. Cells were then washed once with 275 µL of ice-cold FACS buffer and resuspended in 250µl of FACS buffer for analysis.
(§2) The insulin-Fc fusion proteins were manufactured in HEK293 cells according to Example 1 and purified using a Protein A or Protein G columns according to Example 4. […] Their %homodimer content was measured by size-exclusion chromatography according to Example 10, and their insulin receptor binding affinities were measured according to Example 12. Additionally, the insulin-Fc fusion protein affinities for the canine FcRn receptor were measured according to Example 15.
A general note: Flow cytometry measures light scatter and fluorescence of single cells or particles in a stream.

Assay [2] deals with T2, biotinylated canine FcRn (canine, UniProt A0A8I3PFR8 25-347, biotinylated, site not stated). The assay can be described thus: ELISA pH 5.5, fusion protein coated, biotinylated canine FcRn titrated. On the procedure: (§3) Insulin-Fc fusion proteins comprising Fc fragments of canine origin were diluted to 10 µg/ml in sodium bicarbonate pH 9.6 buffer and coated in duplicate on Maxisorb ELISA plate strips for 1-2 hours at RT. The strips were then washed 4 times with PBST (PBS/0.1% Tween-20) buffer and blocked with Superblock blocking reagent (ThermoFisher). Strips for FcRn binding were then washed again twice with pH 5.5 MES/NaCl/Tween (50 mM MES/150mM NaCl/0.1% Tween-20) buffer before addition of the FcRn reagent (biotinylated canine FcRn; Immunitrack). Serial dilutions (1:3X dilutions) of biotinylated FcRn reagent were prepared in pH 5.5 MES/NaCl/Tween/10%Superblock buffer at concentrations from 1000 ng/ml to 0.45 ng/mL and loaded at 100 µL/well using a multichannel pipettor onto the strips coated with the insulin-Fc fusion protein compounds. The assay plate was then incubated for 1 hour at room temperature. FcRn binding strips were washed 4 times with pH 5.5 MES/NaCl/Tween buffer and then loaded with 100 µl/well streptavidin-HRP diluted 1:10000 in pH 5.5 MES/NaCl /10%Superblock buffer. After incubating for 45 minutes, strips were washed again 4 times with pH 5.5 MES/NaCl/Tween buffer. […] The plate was read in an ELISA plate reader at a wavelength of 450 nm. […] EC50 values for each binding curve were calculated to compare between different compounds.
On the technique in general: ELISA stands for enzyme-linked immunosorbent assay.

For assay [3], the target named is T1, human insulin receptor (IR) on human …. The assay can be described thus: competition with biotinylated RHI on IM-9 cells, flow cytometry, 4 C; material purified via Protein A. The method, then:
as §1, §2

In assay [4] the target is T3, biotinylated recombinant human Fc(gamma)RI (human, UniProt P12314 16-288, biotinylated, site not stated).
T3 construct: Bought reagent; construct not described; also called rhFc(gamma)RI; Fc(gamma) receptor I
Nature of the assay: ELISA, fusion protein coated, biotinylated rhFc(gamma)RI at 3000 ng/mL. The method, then: The binding of insulin-Fc fusion proteins to the Fc(gamma)RI at pH 7.4 is conducted using an ELISA assay as follows using human Fc(gamma)RI (i.e., rhFc(gamma)RI). Insulin-Fc fusion proteins are diluted to 10 µg/mL in sodium bicarbonate buffer at pH 9.6 and coated on Maxisorp (Nunc) microtiter plates overnight at 4° C., after which the microplate strips are washed 5 times with PBST (PBS/0.05% Tween-20) buffer and blocked with Superblock blocking reagent (ThermoFisher). Serial dilutions of biotinylated rhFc(gamma)RI (recombinant human Fc(gamma)RI; R&D Systems) are prepared in PBST/10% Superblock buffer from 3000 ng/mL to 4.1 ng/mL and loaded at 100 µL/well onto the microplate strips coated with insulin-Fc fusion protein. The microtiter plate is incubated for 1 hour at room temperature after which time the microplate strips are washed 5 times with PBST and then loaded with 100 µL/well of streptavidin-HRP diluted 1:10000 in PBST/10% Superblock buffer. After incubating for 45 min, the microplate strips are washed again 5 times with PBST. TMB is added to reveal the bound Fc(gamma)RI proteins and is stopped with ELISA stop reagent (Boston Bioproducts). The plate is read in an ELISA plate reader at 450 nm, and the OD450 values (proportional to the binding of rhFc(gamma)RI to insulin-Fc protein) are plotted against log concentrations of rhFc(gamma)RI added to each well to generate binding curves using GraphPad Prism software. For groupings of compounds with somewhat similar curves, the OD450 at one of the higher concentrations, for instance at rhFc(gamma)RI concentrations of 3000 ng/mL, can be used to identify differences between coated insulin-Fc fusion protein compounds. […]
Finally, select compounds were tested for their likelihood to interact with the immune system by measuring their Fc(gamma) receptor binding activity according to the procedure of Example 15.

For assay [5], the target named is T1, human insulin receptor (IR) on human …. Nature of the assay: competition with biotinylated RHI on IM-9 cells, flow cytometry, 4 C. The method, then: as §1
(§4) The insulin-Fc fusion proteins were manufactured in HEK293 cells according to Example 1 and purified using a Protein A column according to Example 4. Their structures were confirmed according to Example 6 by non-reducing and reducing CE-SDS, and the sequences were further identified by LC-MS with glycan removal according to Example 8. Their %homodimer content was measured by size-exclusion chromatography according to Example 10, and their insulin receptor binding affinities were measured according to Example 12.

Assay [6] shares this target. The description is as above. On the procedure: as §1, §4
This is another data set of the same source.

Assay [7] has the same target. The assay is described as above. The method, then:
as §1, §4
This is another data set of the same source.

Assay [8] shares this target. The description is as above. This is another data set of the same source.
For assay [9], the target named is T2, biotinylated canine FcRn. The assay can be described thus: FcRn ELISA; species of FcRn not given, taken as canine. The method, then: as §3

Positions count from the first letter of the chain named.

T1 sequence (P06213 28-1382): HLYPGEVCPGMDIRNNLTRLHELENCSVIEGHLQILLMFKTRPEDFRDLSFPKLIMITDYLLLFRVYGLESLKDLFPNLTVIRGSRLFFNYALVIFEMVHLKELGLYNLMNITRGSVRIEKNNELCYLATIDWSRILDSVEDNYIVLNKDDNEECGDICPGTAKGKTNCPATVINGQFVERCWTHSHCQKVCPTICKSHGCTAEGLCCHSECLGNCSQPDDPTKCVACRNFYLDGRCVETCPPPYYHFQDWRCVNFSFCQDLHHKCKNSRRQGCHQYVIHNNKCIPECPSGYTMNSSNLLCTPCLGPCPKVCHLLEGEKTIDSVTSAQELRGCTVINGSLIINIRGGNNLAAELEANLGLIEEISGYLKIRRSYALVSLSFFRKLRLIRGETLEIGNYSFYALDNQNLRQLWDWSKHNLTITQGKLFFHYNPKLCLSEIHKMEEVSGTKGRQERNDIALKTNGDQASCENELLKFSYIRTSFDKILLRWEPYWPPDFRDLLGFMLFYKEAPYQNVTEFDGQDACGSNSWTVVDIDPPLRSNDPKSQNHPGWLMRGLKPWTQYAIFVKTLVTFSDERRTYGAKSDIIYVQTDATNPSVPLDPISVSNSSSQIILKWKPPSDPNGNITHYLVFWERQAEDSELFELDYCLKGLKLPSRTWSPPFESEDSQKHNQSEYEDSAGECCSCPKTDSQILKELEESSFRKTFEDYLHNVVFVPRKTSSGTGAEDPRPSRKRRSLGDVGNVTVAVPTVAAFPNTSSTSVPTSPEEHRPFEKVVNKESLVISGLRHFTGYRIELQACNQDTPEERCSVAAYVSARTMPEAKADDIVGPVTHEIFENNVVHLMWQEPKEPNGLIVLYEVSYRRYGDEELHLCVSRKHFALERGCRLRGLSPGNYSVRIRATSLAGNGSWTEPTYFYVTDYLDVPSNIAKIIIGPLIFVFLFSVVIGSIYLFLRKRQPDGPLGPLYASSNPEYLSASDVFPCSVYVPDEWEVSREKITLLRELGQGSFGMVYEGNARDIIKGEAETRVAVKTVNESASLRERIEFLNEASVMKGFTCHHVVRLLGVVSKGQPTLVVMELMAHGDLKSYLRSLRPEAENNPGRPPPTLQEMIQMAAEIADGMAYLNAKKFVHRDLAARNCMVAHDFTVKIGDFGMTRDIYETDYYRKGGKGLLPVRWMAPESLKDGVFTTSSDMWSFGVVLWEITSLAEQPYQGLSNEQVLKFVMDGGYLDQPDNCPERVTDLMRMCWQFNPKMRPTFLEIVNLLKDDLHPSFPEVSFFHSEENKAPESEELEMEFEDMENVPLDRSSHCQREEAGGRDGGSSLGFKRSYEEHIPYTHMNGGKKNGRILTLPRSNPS
T3 sequence (P12314 16-288 limits assumed): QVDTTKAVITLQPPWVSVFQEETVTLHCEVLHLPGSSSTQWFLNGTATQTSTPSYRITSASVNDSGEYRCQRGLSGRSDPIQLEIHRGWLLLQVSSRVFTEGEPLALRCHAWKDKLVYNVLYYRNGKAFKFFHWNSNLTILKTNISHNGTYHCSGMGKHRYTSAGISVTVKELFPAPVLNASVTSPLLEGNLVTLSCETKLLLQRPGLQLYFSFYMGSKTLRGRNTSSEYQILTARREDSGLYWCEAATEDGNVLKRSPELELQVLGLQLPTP
T2 sequence (A0A8I3PFR8 entry or part of it): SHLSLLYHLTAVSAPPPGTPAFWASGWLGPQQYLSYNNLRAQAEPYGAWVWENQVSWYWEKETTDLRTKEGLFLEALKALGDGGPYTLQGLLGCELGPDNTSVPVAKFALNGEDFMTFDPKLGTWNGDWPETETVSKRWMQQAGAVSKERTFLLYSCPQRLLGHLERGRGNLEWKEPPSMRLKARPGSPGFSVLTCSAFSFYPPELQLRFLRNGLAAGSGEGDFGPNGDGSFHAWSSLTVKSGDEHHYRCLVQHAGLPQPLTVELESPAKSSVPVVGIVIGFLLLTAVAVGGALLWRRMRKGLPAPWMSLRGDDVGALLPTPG

B1: insulin-Fc fusion protein of SEQ ID NO: 59 (Fc fusion)
chain: FVNQHLCGSHLVEALELVCGERGFHYGGGGGGSGGGGGIVEQCCTSTCSLDQLENYCGGGGGQGGGGQGGGGQGGGGGCNNCPCPGCGLLGGPSVFIFPPKPKDILVTARTPTVTCVVVDLDPENPEVQISWFVDSKQVQTANTQPREEQSNGTYRVVSVLPIGHQDWLSGKQFKCKVNNKALPSPIEEIISKTPGQAHQPNVYVLPPSRDEMSKNTVTLTCLVKDFFPPEIDVEWQSNGQQEPESKYRMTPPQLDEDGSYFLYSKLSVDKSRWQRGDTFICAVMHEALHNHYTQISLSHSPG
notes: purified by Protein G
As for B1, the IC50 in [1] is 2080 nM.

B2: insulin-Fc fusion protein of SEQ ID NO: 58 (Fc fusion)
chain: FVNQHLCGSHLVEALELVCGERGFHYGGGGGGSGGGGGIVEQCCTSTCSLDQLENYCGGGGGQGGGGQGGGGQGGGGGRCTDTPPCPVPEPLGGPSVLIFPPKPKDILRITRTPEVTCVVLDLGREDPEVQISWFVDGKEVHTAKTQSREQQFNGTYRVVSVLPIEHQDWLTGKEFKCRVNHIDLPSPIERTISKARGRAHKPSVYVLPPSPKELSSSDTVSITCLIKDFYPPDIDVEWQSNGQQEPERKHRMTPPQLDEDGSYFLYSKLSVDKSRWQQGDPFTCAVMHETLQNHYTDLSLSHSPG
notes: purified by Protein A or Protein G
B2 displayed an EC50 in the assay with biotinylated canine FcRn [2] of 1.61 µg/mL. For the same molecule, the IC50 in assay [3] turned out to be 2590 nM. Also, in assay [4], the OD450nm worked out at 0.253, the “OD450nm minus assay background” value was 0.196 and the “ratio to SEQ ID NO: 36” value was found to be 0.53.

B3: insulin-Fc fusion protein of SEQ ID NO: 26 (Fc fusion)
chain: FVNQHLCGSHLVEALELVCGERGFHYGGGGGGSGGGGGIVEQCCTSTCSLDQLENYCGGGGGQGGGGQGGGGQGGGGGDCPKCPAPEMLGGPSVFIFPPKPKDTLLIARTPEVTCVVVDLDPEDPEVQISWFVDGKQMQTAKTQPREEQFNGTYRVVSVLPIGHQDWLKGKQFTCKVNNKALPSPIERTISKARGQAHQPSVYVLPPSREELSKNTVSLTCLIKDFFPPDIDVEWQSNGQQEPESKYRTTPPQLDEDGSYFLYSKLSVDKSRWQRGDTFICAVMHEALHNHYTQESLSHSPG
modifications: native N-glycosylation site cNg-NB151
For the molecule B3, in [5], the IC50 came out at 2340 nM. This molecule registered an EC50 in the assay with biotinylated canine FcRn [2] of 0.599 µg/mL. In assay [6], the IC50 was 2340 nM. In [4], the OD450nm amounted to 0.368, the “OD450nm minus assay background” value was 0.311 and the “ratio to SEQ ID NO: 36” value was determined as 0.84. The IC50 in [7] worked out at 2340 nM.

B4: insulin-Fc fusion protein of SEQ ID NO: 30 (Fc fusion)
chain: B3 chain with E16A, N151S
In assay [8], B4 displayed an IC50 of 2040 nM. Also, in [4], the OD450nm worked out at 0.177, the “OD450nm minus assay background” value was 0.12 and the “ratio to SEQ ID NO: 36” value amounted to 0.32. In the assay with biotinylated canine FcRn [9], the EC50 is 1.19 µg/mL.

A word on the IC50: it is the midpoint of a concentration-inhibition curve. A lower IC50 goes with greater potency. What is called EC50 is the concentration giving half of the maximal effect. Higher therefore signals a less potent agent.

The values are drawn from US20230250148A1 (published 2023).
